Reference: patent publication US20250340857A1 (SEISMIC THERAPEUTIC, published 2025)

Target: Human IgE antibody (human)
Test: cell-based or functional assay

Binder | EC50 CE-SDS IgE [nM] | EC50 MSD IgE [nM]
FP121 (Fc fusion) DKTHTCPPCPAPEAAGAPSVFLFPPKPKDTLMISRTPEVTCVVVDVSHEDPEVKFNWYVDGVEVHNAKTKPREEQQNSTYRVVSVLTVLHQDWLNGKEYKCKVSNKALKAPIEKTISKAKGQPREPQVYTLPPSRDELTKNQVSLTCLVKGFYPSDIAVEWESNGQPENNYKTTPPVLDSDGSFFLYSKLTVDKSRWQQGNVFSCSVMHEALHNHYTQKSLSLSPGGGGSGGGGSGGGGSTALGRRKAEDRIKETLWADGVKIDEKDFEHIKSSHEDYFAVEYGKGSGYYDVNKKMDSEDTALCVGAVVTNMFHWWVDQNRENIEKFKKQDPENNGVMKFEGVKEATVDELNEFYRDNRDNYADQSRFFDLIKKHFGNKALNPEELFELYFNGFYYGSSHRYIEDNEPAQNNLFSKVLENNKLLNPERSYGIDGFSNNVINALKSHKVLGLVYTTPLRYRHIISMWGADIDQDGKVKAIYVTDSDDREITFNDNSKRRIGMIRYDVLVDDNGNIRFTGKGATHKEEGAIYAGLYSLSRGDEVWEDYFKKYPEVQENL | 1.22 | 1.25
FP141 (Fc fusion) chain 1: DKTHTCPPCPAPEAAGAPSVFLFPPKPKDTLMISRTPEVTCVVVDVSHEDPEVKFNWYVDGVEVHNAKTKPREEQQNSTYRVVSVLTVLHQDWLNGKEYKCKVSNKALKAPIEKTISKAKGQPREPQVYTLPPSRDELTKNQVSLWCLVKGFYPSDIAVEWESNGQPENNYKTTPPVLDSDGSFFLYSKLTVDKSRWQQGNVFSCSVMHEALHNHYTQKSLSLSPGGGGSGGGGSGGGGSTALGRRKAEDRIKETLWADGVKIDEKDFEHIKSSHEDYFAVEYGKGSGYYDVNKKMDSEDTALCVGAVVTNMFHWWVDQNRENIEKFKKQDPENNGVMKFEGVKEATVDELNEFYRDNRDNYADQSRFFDLIKKHFGNKALNPEELFELYFNGFYYGSSHRYIEDNEPAQNNLFSKVLENNKLLNPERSYGIDGFSNNVINALKSHKVLGLVYTTPLRYRHIISMWGADIDQDGKVKAIYVTDSDDREITFNDNSKRRIGMIRYDVLVDDNGNIRFTGKGATHKEEGAIYAGLYSLSRGDEVWEDYFKKYPEVQENL chain 2: DKTHTCPPCPAPEAAGAPSVFLFPPKPKDTLMISRTPEVTCVVVDVSHEDPEVKFNWYVDGVEVHNAKTKPREEQQNSTYRVVSVLTVLHQDWLNGKEYKCKVSNKALKAPIEKTISKAKGQPREPQVYTLPPSRDELTKNQVSLSCAVKGFYPSDIAVEWESNGQPENNYKTTPPVLDSDGSFFLVSKLTVDKSRWQQGNVFSCSVMHEALHNHYTQKSLSLSPG | 0.75 | 0.874
FP134 (Fc fusion) DKTHTCPPCPAPEAAGAPSVFLFPPKPKDTLMISRTPEVTCVVVDVSHEDPEVKFNWYVDGVEVHNAKTKPREEQQNSTYRVVSVLTVLHQDWLNGKEYKCKVSNKALKAPIEKTISKAKGQPREPQVYTLPPSRDELTKNQVSLTCLVKGFYPSDIAVEWESNGQPENNYKTTPPVLDSDGSFFLYSKLTVDKSRWQQGNVFSCSVMHEALHNHYTQKSLSLSPGGGGSKGGGSKGGGSKTALGRRKAEDRIKETLWADGVKIDEKDFEHIKSSHEDYFAVEYGKGSGYYDVNKKMDSEDTALCVGAVVTNMFHWWVDQNRENIEKFKKQDPENNGVMKFEGVKEATVDELNEFYRDNRDNYADQSRFFDLIKKHFGNKALNPEELFELYFNGFYYGSSHRYIEDNEPAQNNLFSKVLENNKLLNPERSYGIDGFSNNVINALKSHKVLGLVYTTPLRYRHIISMWGADIDQDGKVKAIYVTDSDDREITFNDNSKRRIGMIRYDVLVDDNGNIRFTGKGATHKEEGAIYAGLYSLSRGDEVWEDYFKKYPEVQENL | 2.36 | –
FP137 (Fc fusion) DKTHTCPPCPAPEAAGAPSVFLFPPKPKDTLMISRTPEVTCVVVDVSHEDPEVKFNWYVDGVEVHNAKTKPREEQQNSTYRVVSVLTVLHQDWLNGKEYKCKVSNKALKAPIEKTISKAKGQPREPQVYTLPPSRDELTKNQVSLTCLVKGFYPSDIAVEWESNGQPENNYKTTPPVLDSDGSFFLYSKLTVDKSRWQQGNVFSCSVMHEALHNHYTQKSLSLSPGGSAGKGSAGKGSAGKTALGRRKAEDRIKETLWADGVKIDEKDFEHIKSSHEDYFAVEYGKGSGYYDVNKKMDSEDTALCVGAVVTNMFHWWVDQNRENIEKFKKQDPENNGVMKFEGVKEATVDELNEFYRDNRDNYADQSRFFDLIKKHFGNKALNPEELFELYFNGFYYGSSHRYIEDNEPAQNNLFSKVLENNKLLNPERSYGIDGFSNNVINALKSHKVLGLVYTTPLRYRHIISMWGADIDQDGKVKAIYVTDSDDREITFNDNSKRRIGMIRYDVLVDDNGNIRFTGKGATHKEEGAIYAGLYSLSRGDEVWEDYFKKYPEVQENL | 1.28 | –
FP17 (Fc fusion) DKTHTCPPCPAPEAAGAPSVFLFPPKPKDTLMISRTPEVTCVVVDVSHEDPEVKFNWYVDGVEVHNAKTKPREEQQNSTYRVVSVLTVLHQDWLNGKEYKCKVSNKALKAPIEKTISKAKGQPREPQVYTLPPSRDELTKNQVSLTCLVKGFYPSDIAVEWESNGQPENNYKTTPPVLDSDGSFFLYSKLTVDKSRWQQGNVFSCSVMHEALHNHYTQKSLSLSPGGGGSGGGGSGGGGSGGGGSGGGGSGGGGSTALGRRKAEDRIKETLWADGVKIDEKDFEHIKSSHEDYFAVEYGKGSGYYDVNKKMDSEDTALCVGAVVTNMFHWWVDQNRENIEKFKKQDPENNGVMKFNGVKEATVDELNHFYKEYQSNKYADQSRFFDLIKKHFGNKALNPEELFELYFNGFYYGSSHRYIEDNKPAQNNLFSKVLENNKLLNPERSYGIDGFSNNVINALKSHKVLGLVHTTPLRYRHIISMWGADIDQDGKVKAIYVTDSDDREITFNDNSKRRIGMIRYDVLVDDNGNIRFTGKGATHKEEGAIYAGLYSLSRGDEVWEDYFKKYPEVQENL | 56.3 | –
FP140 (Fc fusion) DKTHTCPPCPAPEAAGAPSVFLFPPKPKDTLMISRTPEVTCVVVDVSHEDPEVKFNWYVDGVEVHNAKTKPREEQQNSTYRVVSVLTVLHQDWLNGKEYKCKVSNKALKAPIEKTISKAKGQPREPQVYTLPPSRDELTKNQVSLTCLVKGFYPSDIAVEWESNGQPENNYKTTPPVLDSDGSFFLYSKLTVDKSRWQQGNVFSCSVMHEALHNHYTQKSLSLSPGGSSAPGSSAPGSSAPTALGRRKAEDRIKETLWADGVKIDEKDFEHIKSSHEDYFAVEYGKGSGYYDVNKKMDSEDTALCVGAVVTNMFHWWVDQNRENIEKFKKQDPENNGVMKFEGVKEATVDELNEFYRDNRDNYADQSRFFDLIKKHFGNKALNPEELFELYFNGFYYGSSHRYIEDNEPAQNNLFSKVLENNKLLNPERSYGIDGFSNNVINALKSHKVLGLVYTTPLRYRHIISMWGADIDQDGKVKAIYVTDSDDREITFNDNSKRRIGMIRYDVLVDDNGNIRFTGKGATHKEEGAIYAGLYSLSRGDEVWEDYFKKYPEVQENL | 0.43 | 1.35
FP132 (Fc fusion) DKTHTCPPCPAPEAAGAPSVFLFPPKPKDTLMISRTPEVTCVVVDVSHEDPEVKFNWYVDGVEVHNAKTKPREEQQNSTYRVVSVLTVLHQDWLNGKEYKCKVSNKALKAPIEKTISKAKGQPREPQVYTLPPSRDELTKNQVSLTCLVKGFYPSDIAVEWESNGQPENNYKTTPPVLDSDGSFFLYSKLTVDKSRWQQGNVFSCSVMHEALHNHYTQKSLSLSPGGGGGSGGGGSTALGRRKAEDRIKETLWADGVKIDEKDFEHIKSSHEDYFAVEYGKGSGYYDVNKKMDSEDTALCVGAVVTNMFHWWVDQNRENIEKFKKQDPENNGVMKFEGVKEATVDELNEFYRDNRDNYADQSRFFDLIKKHFGNKALNPEELFELYFNGFYYGSSHRYIEDNEPAQNNLFSKVLENNKLLNPERSYGIDGFSNNVINALKSHKVLGLVYTTPLRYRHIISMWGADIDQDGKVKAIYVTDSDDREITFNDNSKRRIGMIRYDVLVDDNGNIRFTGKGATHKEEGAIYAGLYSLSRGDEVWEDYFKKYPEVQENL | 1.27 | –
FP139 (Fc fusion) DKTHTCPPCPAPEAAGAPSVFLFPPKPKDTLMISRTPEVTCVVVDVSHEDPEVKFNWYVDGVEVHNAKTKPREEQQNSTYRVVSVLTVLHQDWLNGKEYKCKVSNKALKAPIEKTISKAKGQPREPQVYTLPPSRDELTKNQVSLTCLVKGFYPSDIAVEWESNGQPENNYKTTPPVLDSDGSFFLYSKLTVDKSRWQQGNVFSCSVMHEALHNHYTQKSLSLSPGGSSAPGSSAPTALGRRKAEDRIKETLWADGVKIDEKDFEHIKSSHEDYFAVEYGKGSGYYDVNKKMDSEDTALCVGAVVTNMFHWWVDQNRENIEKFKKQDPENNGVMKFEGVKEATVDELNEFYRDNRDNYADQSRFFDLIKKHFGNKALNPEELFELYFNGFYYGSSHRYIEDNEPAQNNLFSKVLENNKLLNPERSYGIDGFSNNVINALKSHKVLGLVYTTPLRYRHIISMWGADIDQDGKVKAIYVTDSDDREITFNDNSKRRIGMIRYDVLVDDNGNIRFTGKGATHKEEGAIYAGLYSLSRGDEVWEDYFKKYPEVQENL | 0.11 | –
FP133 (Fc fusion) DKTHTCPPCPAPEAAGAPSVFLFPPKPKDTLMISRTPEVTCVVVDVSHEDPEVKFNWYVDGVEVHNAKTKPREEQQNSTYRVVSVLTVLHQDWLNGKEYKCKVSNKALKAPIEKTISKAKGQPREPQVYTLPPSRDELTKNQVSLTCLVKGFYPSDIAVEWESNGQPENNYKTTPPVLDSDGSFFLYSKLTVDKSRWQQGNVFSCSVMHEALHNHYTQKSLSLSPGGGGSKGGGSKTALGRRKAEDRIKETLWADGVKIDEKDFEHIKSSHEDYFAVEYGKGSGYYDVNKKMDSEDTALCVGAVVTNMFHWWVDQNRENIEKFKKQDPENNGVMKFEGVKEATVDELNEFYRDNRDNYADQSRFFDLIKKHFGNKALNPEELFELYFNGFYYGSSHRYIEDNEPAQNNLFSKVLENNKLLNPERSYGIDGFSNNVINALKSHKVLGLVYTTPLRYRHIISMWGADIDQDGKVKAIYVTDSDDREITFNDNSKRRIGMIRYDVLVDDNGNIRFTGKGATHKEEGAIYAGLYSLSRGDEVWEDYFKKYPEVQENL | 1.15 | –
FP136 (Fc fusion) DKTHTCPPCPAPEAAGAPSVFLFPPKPKDTLMISRTPEVTCVVVDVSHEDPEVKFNWYVDGVEVHNAKTKPREEQQNSTYRVVSVLTVLHQDWLNGKEYKCKVSNKALKAPIEKTISKAKGQPREPQVYTLPPSRDELTKNQVSLTCLVKGFYPSDIAVEWESNGQPENNYKTTPPVLDSDGSFFLYSKLTVDKSRWQQGNVFSCSVMHEALHNHYTQKSLSLSPGGSAGKGSAGKTALGRRKAEDRIKETLWADGVKIDEKDFEHIKSSHEDYFAVEYGKGSGYYDVNKKMDSEDTALCVGAVVTNMFHWWVDQNRENIEKFKKQDPENNGVMKFEGVKEATVDELNEFYRDNRDNYADQSRFFDLIKKHFGNKALNPEELFELYFNGFYYGSSHRYIEDNEPAQNNLFSKVLENNKLLNPERSYGIDGFSNNVINALKSHKVLGLVYTTPLRYRHIISMWGADIDQDGKVKAIYVTDSDDREITFNDNSKRRIGMIRYDVLVDDNGNIRFTGKGATHKEEGAIYAGLYSLSRGDEVWEDYFKKYPEVQENL | 0.61 | –
